Experimental data: paper PMC5792436, “TT(N)mGCCTC inhibits archaeal family B DNA polymerases”

Legend:
[1] = biological target: T1, KOD DNA polymerase, purified (pET22b-KOD) (UniProt D0VWU9 1-774); test: EMSA; 2 nM DNA, no Mg2+; 10 mM Tris-HCl pH 7.9, 50 mM KCl, 1 mM EDTA, 5% glycerol, 1 mM DTT, 25 ug/ml BSA; no MgCl2, no poly(dI-dC); 20 min at room temperature; 6% PAGE in 0.5X TBE; details: protein: recombinant; tags: His; label: 5' biotin
T1 sequence: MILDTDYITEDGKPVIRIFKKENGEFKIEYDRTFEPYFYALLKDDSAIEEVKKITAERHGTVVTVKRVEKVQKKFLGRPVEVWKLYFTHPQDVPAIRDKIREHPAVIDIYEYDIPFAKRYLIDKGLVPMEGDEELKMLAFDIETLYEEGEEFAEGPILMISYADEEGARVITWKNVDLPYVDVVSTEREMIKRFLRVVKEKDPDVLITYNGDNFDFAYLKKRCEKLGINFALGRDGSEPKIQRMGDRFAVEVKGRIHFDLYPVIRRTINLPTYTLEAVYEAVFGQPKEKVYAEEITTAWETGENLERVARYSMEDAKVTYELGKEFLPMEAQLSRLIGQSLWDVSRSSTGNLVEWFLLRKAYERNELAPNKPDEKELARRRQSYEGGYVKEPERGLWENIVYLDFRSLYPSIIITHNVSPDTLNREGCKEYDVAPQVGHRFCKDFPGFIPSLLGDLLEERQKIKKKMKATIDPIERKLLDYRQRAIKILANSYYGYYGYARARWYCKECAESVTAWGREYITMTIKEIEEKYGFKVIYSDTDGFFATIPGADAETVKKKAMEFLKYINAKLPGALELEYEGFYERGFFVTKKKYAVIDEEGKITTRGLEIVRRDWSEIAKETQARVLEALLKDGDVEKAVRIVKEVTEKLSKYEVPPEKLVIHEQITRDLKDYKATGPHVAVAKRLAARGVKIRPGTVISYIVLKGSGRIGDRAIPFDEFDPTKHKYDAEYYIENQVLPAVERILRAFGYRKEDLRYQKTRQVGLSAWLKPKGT

[2] = biological target: Taq DNA polymerase (Fig. 4A) (UniProt P19821 1-832); test: EMSA; no Mg2+; 10 mM Tris-HCl pH 7.9, 50 mM KCl, 1 mM EDTA, 5% glycerol, 1 mM DTT, 25 ug/ml BSA; no MgCl2, no poly(dI-dC); 20 min at room temperature; 6% PAGE in 0.5X TBE; details: protein: commercial; label: 5' biotin
Sequence of Taq DNA polymerase (Fig. 4A) (P19821 whole entry): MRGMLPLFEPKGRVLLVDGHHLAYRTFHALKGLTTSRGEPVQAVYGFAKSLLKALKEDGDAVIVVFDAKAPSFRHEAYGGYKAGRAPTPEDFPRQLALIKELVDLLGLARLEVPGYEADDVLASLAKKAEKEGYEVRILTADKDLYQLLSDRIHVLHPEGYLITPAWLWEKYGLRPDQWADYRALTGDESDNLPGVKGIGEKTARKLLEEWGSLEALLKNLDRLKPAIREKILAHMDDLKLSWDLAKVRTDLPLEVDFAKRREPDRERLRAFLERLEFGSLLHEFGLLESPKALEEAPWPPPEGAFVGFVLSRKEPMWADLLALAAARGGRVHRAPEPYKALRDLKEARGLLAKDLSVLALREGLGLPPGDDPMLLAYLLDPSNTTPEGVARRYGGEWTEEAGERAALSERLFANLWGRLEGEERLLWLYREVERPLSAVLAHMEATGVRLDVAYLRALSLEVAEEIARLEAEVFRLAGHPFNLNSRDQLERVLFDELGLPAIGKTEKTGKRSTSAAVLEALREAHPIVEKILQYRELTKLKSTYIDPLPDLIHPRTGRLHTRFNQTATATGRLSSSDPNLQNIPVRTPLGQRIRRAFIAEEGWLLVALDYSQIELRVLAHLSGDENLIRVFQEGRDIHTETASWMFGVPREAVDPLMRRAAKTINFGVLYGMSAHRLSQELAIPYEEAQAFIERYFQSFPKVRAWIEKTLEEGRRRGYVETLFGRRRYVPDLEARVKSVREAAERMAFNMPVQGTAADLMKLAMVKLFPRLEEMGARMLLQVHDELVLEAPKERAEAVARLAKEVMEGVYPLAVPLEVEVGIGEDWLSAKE

TACCGAGCTCTTACGCGTGCCTCTGACTTGCCTCAGAGC (ssDNA) [Bio-Olig2.5] was tested, and the Kd [1] was ~40 nM and the binding result [2] was “no binding”.
